Assays:
[1] = target: T1, ECD of murine IGSF11, recombinant biotinylated (mouse, UniProt P0C673 23-240); test: ELISA RFU>1.0
T1 construct: whole entry named; also called Mouse IGSF11
T1 sequence: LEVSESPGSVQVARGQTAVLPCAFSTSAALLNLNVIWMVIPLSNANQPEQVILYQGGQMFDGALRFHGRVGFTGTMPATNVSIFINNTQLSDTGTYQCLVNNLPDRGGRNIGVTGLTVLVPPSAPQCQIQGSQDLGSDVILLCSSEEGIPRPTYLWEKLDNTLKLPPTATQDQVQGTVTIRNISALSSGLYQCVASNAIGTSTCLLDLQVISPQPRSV

[2] = target: T2, extracellular domain (ECD) of human IGSF11 (VSIG3), recombinant (human, UniProt Q5DX21 23-241); test: ELISA RFU>1.0
T2 construct: biotinylated where captured on streptavidin; tags of the reagent not always stated; also called IGSF11 (ECD domain); ECD-IGSF11
T2 sequence: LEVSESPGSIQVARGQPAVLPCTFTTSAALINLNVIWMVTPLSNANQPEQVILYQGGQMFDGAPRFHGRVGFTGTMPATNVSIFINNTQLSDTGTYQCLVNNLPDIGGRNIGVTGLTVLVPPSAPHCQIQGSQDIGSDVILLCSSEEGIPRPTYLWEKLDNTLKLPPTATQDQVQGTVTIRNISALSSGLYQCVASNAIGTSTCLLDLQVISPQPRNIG

[3] = target: T1, ECD of murine IGSF11, recombinant …; test: ELISA RFU 0.5-1.0
[4] = target: T2, extracellular domain (ECD) of human …; test: ELISA RFU 0.5-1.0
[5] = target: T1, ECD of murine IGSF11, recombinant …; test: Fab ELISA
Streptavidin = Streptavidin (UniProt P22629 37-163, limits assumed); test: Fab ELISA
[6] = target: T3, ECD of cynomolgus monkey IGSF11, recombinant biotinylated (cynomolgus monkey, UniProt Q5DX21 23-241 (human entry)); test: Fab ELISA
T3 construct: whole entry named
T3 chain: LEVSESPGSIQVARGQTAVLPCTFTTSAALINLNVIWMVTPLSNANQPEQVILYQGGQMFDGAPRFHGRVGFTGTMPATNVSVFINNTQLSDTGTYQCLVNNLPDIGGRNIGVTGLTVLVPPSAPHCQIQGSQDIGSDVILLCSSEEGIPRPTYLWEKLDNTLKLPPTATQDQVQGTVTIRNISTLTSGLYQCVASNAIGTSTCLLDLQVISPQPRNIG

[7] = target: T2, extracellular domain (ECD) of human …; test: ELISA RFU 0.1-0.5
[8] = target: T2, extracellular domain (ECD) of human …; test: SPR
[9] = target: T4, human IGSF11 (VSIG3) ECD, His-tagged (human, UniProt Q5DX21 23-241); test: IgG1 ELISA EC50 <0.02 nM
T4 construct: in part bought (SinoBiological 13094-H08H); also called HIS-IGSF11; IGSF11-HIS; not shown: His tag
T4 sequence: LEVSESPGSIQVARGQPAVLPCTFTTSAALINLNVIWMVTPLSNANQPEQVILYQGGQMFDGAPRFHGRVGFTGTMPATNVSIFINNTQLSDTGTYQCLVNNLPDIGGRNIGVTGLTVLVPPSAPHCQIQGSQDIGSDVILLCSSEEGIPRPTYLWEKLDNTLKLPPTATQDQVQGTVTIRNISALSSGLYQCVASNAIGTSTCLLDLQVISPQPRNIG

[10] = target: T5, human IGSF11 (VSIG3) expressed on cells (human, UniProt Q5DX21 23-431); test: IgG1 FACS HEK-OE
T5 sequence: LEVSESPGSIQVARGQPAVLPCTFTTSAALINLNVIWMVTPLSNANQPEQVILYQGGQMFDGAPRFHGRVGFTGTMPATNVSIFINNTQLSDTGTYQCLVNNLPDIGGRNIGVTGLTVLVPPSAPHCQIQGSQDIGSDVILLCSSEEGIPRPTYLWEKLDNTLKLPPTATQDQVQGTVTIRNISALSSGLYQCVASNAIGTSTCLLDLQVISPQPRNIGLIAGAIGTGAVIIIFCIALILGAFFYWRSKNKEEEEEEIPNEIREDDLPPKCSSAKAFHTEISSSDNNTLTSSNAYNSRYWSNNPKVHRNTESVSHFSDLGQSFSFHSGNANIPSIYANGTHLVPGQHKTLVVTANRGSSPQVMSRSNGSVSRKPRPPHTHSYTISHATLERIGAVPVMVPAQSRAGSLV

[11] = target: T5, human IGSF11 (VSIG3) expressed on cells; test: IgG1 FACS DMS 273
[12] = target: T5, human IGSF11 (VSIG3) expressed on cells; test: FACS, DMS 273 cells with scrambled control siRNA (SC)
[13] = target: T5, human IGSF11 (VSIG3) expressed on cells; test: FACS, DMS 273 cells with IGSF11 siRNA (KD, knock-down control)
[14] = target: T5, human IGSF11 (VSIG3) expressed on cells; test: FACS, M579-A2-luc cells with scrambled control siRNA (SC)
[15] = target: T5, human IGSF11 (VSIG3) expressed on cells; test: FACS, M579-A2-luc cells with IGSF11 siRNA (KD, knock-down control)

Chain of Streptavidin (P22629 37-163 limits assumed): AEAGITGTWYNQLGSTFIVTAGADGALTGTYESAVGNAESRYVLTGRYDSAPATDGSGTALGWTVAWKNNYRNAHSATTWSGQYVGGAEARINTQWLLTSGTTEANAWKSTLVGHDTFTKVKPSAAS

B1: A-026 (scFv format) (scFv, V domains shown)
VH: QVQLQESGPGLVKPSQTLSLTCTVSGGSISSGGYYWSWIRQHPGKGLEWIGYIYYSGSTYYNPSLKSRVTISVDTSKNQFSLKLSSVTAADTAVYYCASWSLGTSNHGWFDPWGQGTLVTVSS
VL: QSVLTQPPSASGTPGQRVTISCSGSSSNIGSNTVNWYQQLPGTAPKLLISDNNNRPSGVPDRFSGSKSGTSASLAITGLQAEDEADYYCQSYDSNLSGWVFGGGTKLTVL
notes: scFv
ELISA binding signal (RFU) [1]: > 1 rfu
ELISA binding signal (RFU) [2]: > 1 rfu

B2: A-034 (scFv format) (scFv, V domains shown)
VH: QMQLVQSGGGLVKPGGSLRLSCAASGFTFSSYTMNWVRQAPGKGLEWVSSISSIGTYIYYADSVKGRFTISRDNAKNSLYLQMNSLRAEDTAVYYCARVLLSGSYYGYFDSWGQGTLVTVSS
VL: QSVLTQPPSVSGAPGQRVTISCTGSSSNIGAGYDVHWYQQLPGTAPKLFIYGNSNRPSGVPDRFSGSKSGTSASLAITGLQAEDEADYYCQSYDSSLSGYVFGTGTKVTVL
notes: scFv
ELISA binding signal (RFU) [3]: 0.5 to 1 rfu
ELISA binding signal (RFU) [2]: > 1 rfu

B3: A-022 (scFv format) (scFv, V domains shown)
VH: EVQLLESGPGLVKPSQTLSLTCTVSGGSISSGGYYWSWIRQHPGKGLEWIGYIYYSGSTYYNPSLKSRVTISVDTSKNQFSLKLSSVTAADTAVYYCARASRSTDYYFDYWGQGTLVTVSS
VL: QPGLTQPPSMSYGLGQTATLTCTGNRNNIGDQGAAWLQQHQGHPPKLLSYRNNNGPSGISERLSASRSGNTASLTISGLQPEDEADYYCSAWDSSLRAWVFGGGTKLTVL
notes: scFv
ELISA binding signal (RFU) [4]: 0.5 to 1 rfu
ELISA binding signal (RFU) [1]: > 1 rfu

B4: C-010 (Fab format) (Fab, V domains shown)
VH: QVQLVQSGAEVKKPGSSVKVSCKASGGTFSSYAISWVRQAPGQGLEWMGGIIPIFGTANYAQKFQGRVTITADESTSTAYMELSSLRSEDTAVYYCARGYGEYYPAFDVWGQGTLVTVSS
VL: SYELTQPPSVSVSPGQTASITCSGDKLGDKYASWYQQKPGQSPVLVIYQDSKRPSGIPERFSGSNSGNTATLTISGTQAEDEADYYCASYAHTHSTWVFGGGTKLTVL
notes: Fab from E. coli lysate
A450 [5]: < 1
A450 (Streptavidin): < 0.1
A450 [6]: < 1

B5: A-011 (scFv format) (scFv, V domains shown)
VH: QVQLVESGGGVVQPGRSLRLSCAASGFTFSSYAMHWVRQAPGKGLEWVAVISYDGSNKYYADSVKGRFTISRDNSKNTLYLQMNSLRAEDTAVYYCAEGGALNYYGMDVWGQGTTVTVSS
VL: SSELTQDPGVSVALGQTVRITCQGDSLRHFYATWYQQKPGQAPILVIYGKNNRPSGIPDRFSGSSSEDTASLTITGAQAEDEADYYCQSRDPRNNHLIFGGGTKLIVL
notes: scFv
ELISA binding signal (RFU) [7]: 0.1 to 0.5 rfu
ELISA binding signal (RFU) [1]: > 1 rfu

B6: A-013 (IgG1 format) (antibody, V domains shown)
VH: EVQLVESGGGLIQPGGSLRLSCAASGFTVSSNYMSWVRQAPGKGLEWVSVIYSGGSTYYADSVKGRFTISRDNSKNTLYLQMNSLRAEDTAVYYCARGNPYYYGDLQVNFDYWGQGTLVTVSS
VL: QAVVTQEPSLTVSPGGTVTLTCASSTGAVTSAYYPNWFQQKPGQAPRALIYSTSNKHSWTPARFSGSLLGGKAALTLSGVQPEDEADYYCLLYYGGAWVFGGGTKLTVL
notes: human IgG1 format
Kd [8]: 100 to 250 nM
EC50 [9]: < 0.02 nM
EC50 [10]: 10 to 50 nM
EC50 [11]: > 50 nM

B7: A-001 (scFv format) (scFv, V domains shown)
VH: EVQLVESGGGLVKPGGSLRLSCAASGFTFSSYSMNWVRQAPGKGLEWVSSISSSSSYIYYADSVKGRFTISRDNAKNSLYLQMNSLRAEDTAVYYCVRSIIVQALGITSVFDIWGQGTMVTVSS
VL: AIRLTQSPSSLSASVGDRVTISCRASQIISNHLNWYQQKPGKAPKLLIYAASRLQTGVPSRFSGSGSETDYTLTISSLQPEDFATYYCQQSYSNPRTFGHGTKVEIK
notes: scFv
ELISA binding signal (RFU) [1]: > 1 rfu
ELISA binding signal (RFU) [2]: > 1 rfu

B8: A-008 (scFv format) (scFv, V domains shown)
VH: QLQLQESGPGLVKPSETLSLTCTVSGGSISSSGYYWGWIRQPPGKGLEWIGSIYYSGSTYYNPSLKSRVTISVDTSKNQFSLKLSSVTAADTAVYYCARHRVRFGEFDAFDIWGQGTMVTVSS
VL: QAVLTQPPSVSGAPGERVTLSCTGTSSNVGADFDVHWYQQFPGTAPRLLIFGSDNRPSGVPDRFSGSKSGTSASLAITGLQVEDEADYYCQAYDVRLSGWVFGGGTKLTVL
notes: scFv
ELISA binding signal (RFU) [1]: > 1 rfu
ELISA binding signal (RFU) [2]: > 1 rfu

B9: A-016 (scFv format) (scFv, V domains shown)
VH: QVQLQESGAEVKKPGASVKVSCKASGYTFTGYYMHWVRQAPGQGLEWMGGIIPIFGTANYAQKFQGRVTITADESTSTAYMELSSLRSEDTAVYYCAGAGMELTRSGAYYYYGMDVWGQGTTVTVSS
VL: QSALTQPASVSGSPGQSITISCTGTSSDIGGYTFVSWYQQHPGKAPKVMIHDVNNRPSGISNRFSGSKSGNTASLTISGLQAEDEADYYCSSVTSTNTYVFGTGTKVTVL
notes: scFv
ELISA binding signal (RFU) [3]: 0.5 to 1 rfu
ELISA binding signal (RFU) [2]: > 1 rfu

B10: A-019 (scFv format) (scFv, V domains shown)
VH: QVQLVQSGAEVKKPGASVKVSCKASGYTFTGYYMHWVRQAPGQGLEWMGWINPNSGNTGYAQKFQGRVTMTRNTSISTAYMELSSLRSEDTAVYYCARGGQQQLVLDDYWGQGTLVTVSS
VL: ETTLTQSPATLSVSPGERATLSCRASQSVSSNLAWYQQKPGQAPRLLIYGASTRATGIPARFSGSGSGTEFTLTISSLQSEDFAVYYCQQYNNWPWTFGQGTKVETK
notes: scFv
ELISA binding signal (RFU) [3]: 0.5 to 1 rfu
ELISA binding signal (RFU) [2]: > 1 rfu

B11: A-007 (IgG1 format) (antibody, V domains shown)
VH: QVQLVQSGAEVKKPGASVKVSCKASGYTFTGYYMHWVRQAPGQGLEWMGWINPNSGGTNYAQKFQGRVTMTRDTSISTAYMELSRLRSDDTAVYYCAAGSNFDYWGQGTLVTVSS
VL: QSALTQPASVSGSPGQSITIACTGSSSDIGSFSYVSWYQQRPGKAPTLIIYGVNNRPLGVSRRFSGSKSGNTASLSISGLQAEDEADYYCSSYTRRSTVIFGGGTKLTVL
notes: human IgG1 format
% binding (FACS heat-map) [12]: 82.3%
% binding (FACS heat-map) [13]: 34.2%
EC50 [9]: < 0.02 nM
% binding (FACS heat-map) [14]: 65.6%
% binding (FACS heat-map) [15]: 9.15%
EC50 [10]: < 10 nM
EC50 [11]: < 10 nM

B12: C-006 (Fab format) (Fab, V domains shown)
VH: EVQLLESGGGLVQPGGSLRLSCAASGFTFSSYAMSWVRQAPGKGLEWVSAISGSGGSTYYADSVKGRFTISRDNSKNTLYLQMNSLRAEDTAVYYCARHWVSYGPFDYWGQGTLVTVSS
VL: DIQMTQSPSSLSASVGDRVTITCRASQSISSYLNWYQQKPGKAPKLLIYAASSLQSGVPSRFSGSGSGTDFTLTISSLQPEDFATYYCQQSHQSPPITFGQGTKVEIK
notes: Fab from E. coli lysate
A450 [6]: < 1

B13: C-012 (Fab format) (Fab, V domains shown)
VH: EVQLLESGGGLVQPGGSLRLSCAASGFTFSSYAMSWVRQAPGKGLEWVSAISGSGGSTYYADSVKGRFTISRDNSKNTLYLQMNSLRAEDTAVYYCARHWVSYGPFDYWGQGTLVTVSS
VL: DIQMTQSPSSLSASVGDRVTITCRASQSISSYLNWYQQKPGKAPKLLIYAASSLQSGVPSRFSGSGSGTDFTLTISSLQPEDFATYYCQQSHQSPPITFGQGTKVEIK
notes: Fab from E. coli lysate
A450 [6]: < 1

Reference: patent US20220372138A1 (IOMX THERAPEUTICS, published 2022)
